According to the Human Domainome abundance scans (Beltran et al. 2025):
± gives the uncertainty stated by the source.

B1: Intersectin-1, residues 909 to 971; numbered along this chain, Q15811 (parent)
chain: QGEKVEGLQAQALYPWRAKKDNHLNFNKNDVITVLEQQDMWWFGEVQGQKGWFPKSYVKLISG

Variants of: B1
Test: abundance fitness (aPCA) (normalised: wild type 0, dead -1); higher = more abundant; growth selection in yeast, the domain comes from the species named
Conditions: Homo sapiens
In the case of P15G, the abundance fitness is reported as 0.115 ± 0.071.
Work on P15N yielded an abundance fitness of 0.087 ± 0.21.
Work on Q9M yielded an abundance fitness of 0.095 ± 0.17.
Variant Q9I has an abundance fitness of -0.172 ± 0.21.
Work on Q9K yielded an abundance fitness of -0.015 ± 0.14.
For Q9L, the abundance fitness was -0.133 ± 0.12.
Variant Q9V has an abundance fitness of -0.093 ± 0.095.
Work on Q9P yielded an abundance fitness of -0.17 ± 0.2.
In the case of Q9G, the abundance fitness is reported as -0.331 ± 0.071.
Variant Q9N has an abundance fitness of 0.012 ± 0.28.
Variant Q9T has an abundance fitness of -0.076 ± 0.14.
In the case of Q9C, the abundance fitness is reported as -0.109 ± 0.17.
For L8M, the abundance fitness was 0.094 ± 0.13.
With L8K the abundance fitness was -0.136 ± 0.15.
L8V showed an abundance fitness of 0.14 ± 0.082.
L8Q showed an abundance fitness of 0.05 ± 0.13.
L8T gave an abundance fitness of -0.039 ± 0.18.
W42A showed an abundance fitness of -0.244 ± 0.073.
Variant W42C has an abundance fitness of -0.055 ± 0.12.
Work on W42G yielded an abundance fitness of -0.734 ± 0.086.
Variant W42K has an abundance fitness of -1.18 ± 0.4.
Variant W42S has an abundance fitness of -0.667 ± 0.12.
V58W gave an abundance fitness of -0.87 ± 0.15.
Variant V58E has an abundance fitness of -0.703 ± 0.17.
With V58G the abundance fitness was -0.881 ± 0.15.
P54C showed an abundance fitness of -0.765 ± 0.34.
With P54W the abundance fitness was -0.437 ± 0.18.
P54G showed an abundance fitness of -1.18 ± 0.41.
Variant P54F has an abundance fitness of -0.8 ± 0.46.
In the case of E45D, the abundance fitness is reported as -0.223 ± 0.26.
With E45S the abundance fitness was -0.039 ± 0.14.
E45Y showed an abundance fitness of 0.003 ± 0.26.
E45N gave an abundance fitness of -0.356 ± 0.3.
E45M gave an abundance fitness of -0.18 ± 0.17.
E45I showed an abundance fitness of -0.192 ± 0.16.
E45T showed an abundance fitness of 0.073 ± 0.15.
E45R showed an abundance fitness of -0.034 ± 0.12.
Variant N29Y has an abundance fitness of -0.282 ± 0.38.
N29S gave an abundance fitness of -0.128 ± 0.091.
N29Q showed an abundance fitness of -0.041 ± 0.19.
For N29A, the abundance fitness was -0.113 ± 0.11.
N29H gave an abundance fitness of 0.104 ± 0.15.
M40F showed an abundance fitness of -0.233 ± 0.38.
For M40S, the abundance fitness was 0.013 ± 0.12.
M40Y showed an abundance fitness of -0.344 ± 0.26.
For M40N, the abundance fitness was 0.121 ± 0.17.
In the case of M40R, the abundance fitness is reported as -0.127 ± 0.1.
Variant M40P has an abundance fitness of 0.025 ± 0.11.
In the case of M40V, the abundance fitness is reported as -0.164 ± 0.1.
M40T gave an abundance fitness of -0.115 ± 0.13.
For K55Q, the abundance fitness was -0.005 ± 0.34.
In the case of K55R, the abundance fitness is reported as 0.018 ± 0.3.
For K55G, the abundance fitness was -0.165 ± 0.24.
K55E gave an abundance fitness of -0.396 ± 0.34.
Variant A18E has an abundance fitness of -0.234 ± 0.12.
In the case of A18R, the abundance fitness is reported as -0.267 ± 0.072.
For A18V, the abundance fitness was -0.215 ± 0.052.
For A18K, the abundance fitness was -0.059 ± 0.15.
A18T gave an abundance fitness of -0.065 ± 0.078.
With A18N the abundance fitness was -0.086 ± 0.065.
In the case of K59E, the abundance fitness is reported as -0.128 ± 0.14.
For K59S, the abundance fitness was -0.122 ± 0.13.
With K59M the abundance fitness was -0.108 ± 0.23.
K59H showed an abundance fitness of -0.211 ± 0.33.
K19D gave an abundance fitness of 0.026 ± 0.058.
Work on K19F yielded an abundance fitness of 0.032 ± 0.051.
For K19H, the abundance fitness was -0.114 ± 0.064.
K19Y gave an abundance fitness of -0.078 ± 0.056.
Variant K19N has an abundance fitness of -0.055 ± 0.057.
With K19C the abundance fitness was -0.048 ± 0.055.
Work on K19T yielded an abundance fitness of 0.033 ± 0.054.
With K19S the abundance fitness was 0.008 ± 0.042.
For K19A, the abundance fitness was -0.018 ± 0.052.
For S62I, the abundance fitness was -0.165 ± 0.3.
S62G gave an abundance fitness of -0.129 ± 0.12.
With S62P the abundance fitness was -0.21 ± 0.13.
With S62A the abundance fitness was 0.062 ± 0.098.
Work on S62H yielded an abundance fitness of -0.362 ± 0.23.
Variant S62R has an abundance fitness of -0.101 ± 0.11.
Variant S62T has an abundance fitness of -0.209 ± 0.19.
S62C showed an abundance fitness of -0.089 ± 0.16.
In the case of V5L, the abundance fitness is reported as -0.364 ± 0.14.
V5D showed an abundance fitness of 0.126 ± 0.4.
Variant V5W has an abundance fitness of -0.106 ± 0.22.
For V5P, the abundance fitness was -0.07 ± 0.21.
In the case of V5G, the abundance fitness is reported as -0.155 ± 0.084.
Variant V5T has an abundance fitness of -0.237 ± 0.16.
S56Y gave an abundance fitness of -0.225 ± 0.28.
Work on S56P yielded an abundance fitness of -0.298 ± 0.22.
In the case of S56Q, the abundance fitness is reported as -0.099 ± 0.2.
S56F gave an abundance fitness of -0.239 ± 0.19.
Variant S56A has an abundance fitness of -0.137 ± 0.13.
With S56D the abundance fitness was -0.1 ± 0.18.
For S56C, the abundance fitness was -0.204 ± 0.28.
Variant L60M has an abundance fitness of -0.058 ± 0.2.
Work on L60P yielded an abundance fitness of -0.152 ± 0.12.
For L60T, the abundance fitness was -0.162 ± 0.1.
For L60D, the abundance fitness was -0.22 ± 0.23.
Variant N27H has an abundance fitness of -0.708 ± 0.49.
N27T gave an abundance fitness of -0.307 ± 0.43.
N27A gave an abundance fitness of -0.114 ± 0.31.
Variant A12R has an abundance fitness of -0.997 ± 0.21.
With A12W the abundance fitness was -1.02 ± 0.44.
Variant L35C has an abundance fitness of 0.145 ± 0.36.
In the case of L35Q, the abundance fitness is reported as -0.058 ± 0.24.
With L35S the abundance fitness was -0.114 ± 0.19.
Work on L35T yielded an abundance fitness of -0.327 ± 0.45.
Work on L35E yielded an abundance fitness of -0.243 ± 0.29.
With Y14A the abundance fitness was -0.09 ± 0.092.
With Y14Q the abundance fitness was -0.129 ± 0.21.
Y14E showed an abundance fitness of 0.023 ± 0.12.
In the case of Y14F, the abundance fitness is reported as -0.725 ± 0.44.
W16R showed an abundance fitness of -0.115 ± 0.084.
For W16N, the abundance fitness was -0.199 ± 0.2.
With W16Y the abundance fitness was -0.32 ± 0.29.
Work on W16Q yielded an abundance fitness of -0.396 ± 0.16.
With W16M the abundance fitness was -0.281 ± 0.26.
W16P showed an abundance fitness of -0.691 ± 0.27.
In the case of W16H, the abundance fitness is reported as -0.051 ± 0.26.
Work on W16T yielded an abundance fitness of -0.646 ± 0.15.
For K20D, the abundance fitness was -0.097 ± 0.056.
K20S gave an abundance fitness of -0.011 ± 0.039.
K20R showed an abundance fitness of -0.078 ± 0.04.
K20H showed an abundance fitness of -0.133 ± 0.06.
For K20T, the abundance fitness was -0.079 ± 0.051.
Work on K20Q yielded an abundance fitness of -0.171 ± 0.066.
K28N gave an abundance fitness of -0.563 ± 0.27.
K28R showed an abundance fitness of -0.232 ± 0.19.
With K28C the abundance fitness was -0.172 ± 0.5.
In the case of K28H, the abundance fitness is reported as -0.253 ± 0.24.
K28L gave an abundance fitness of -0.462 ± 0.23.
K28Y showed an abundance fitness of -0.254 ± 0.41.
In the case of K28V, the abundance fitness is reported as -0.256 ± 0.14.
Work on K28G yielded an abundance fitness of -0.203 ± 0.093.
In the case of K28T, the abundance fitness is reported as 0.208 ± 0.24.
G2A gave an abundance fitness of -0.028 ± 0.12.
With G2E the abundance fitness was -0.001 ± 0.17.
For G2C, the abundance fitness was -0.286 ± 0.16.
G2S gave an abundance fitness of -0.018 ± 0.085.
For K4W, the abundance fitness was -0.08 ± 0.17.
For K4V, the abundance fitness was -0.168 ± 0.18.
With K4H the abundance fitness was -0.168 ± 0.3.
K4N showed an abundance fitness of -0.026 ± 0.17.
With K4G the abundance fitness was -0.588 ± 0.15.
K4S gave an abundance fitness of -0.014 ± 0.098.
K4L gave an abundance fitness of -0.248 ± 0.13.
Work on D21C yielded an abundance fitness of -0.167 ± 0.045.
D21H gave an abundance fitness of 0.01 ± 0.079.
With D21Y the abundance fitness was -0.102 ± 0.07.
For D21A, the abundance fitness was 0 ± 0.047.
Variant D21F has an abundance fitness of -0.131 ± 0.075.
Work on D21G yielded an abundance fitness of -0.068 ± 0.042.
For D21W, the abundance fitness was -0.112 ± 0.12.
In the case of H23W, the abundance fitness is reported as -0.04 ± 0.2.
H23L showed an abundance fitness of -0.114 ± 0.085.
Variant H23C has an abundance fitness of -0.492 ± 0.22.
Work on H23G yielded an abundance fitness of -0.164 ± 0.11.
H23V gave an abundance fitness of -0.172 ± 0.1.
Variant H23Q has an abundance fitness of -0.135 ± 0.31.
Variant H23Y has an abundance fitness of -0.171 ± 0.13.
With G63R the abundance fitness was -0.029 ± 0.086.
Work on G63S yielded an abundance fitness of -0.278 ± 0.15.
G63Q showed an abundance fitness of -0.248 ± 0.38.
Variant N25L has an abundance fitness of -0.28 ± 0.15.
In the case of N25A, the abundance fitness is reported as -0.064 ± 0.1.
Work on N25H yielded an abundance fitness of 0.009 ± 0.5.
With N25D the abundance fitness was -0.066 ± 0.1.
